Results: patent US20220119506A1 (NOVOBIND LIVESTOCK THERAPEUTICS, published 2022)

T1: PirB (Vibrio parahaemolyticus)
T1 construct: also called JHE-like toxin PirB-like
T1 chain: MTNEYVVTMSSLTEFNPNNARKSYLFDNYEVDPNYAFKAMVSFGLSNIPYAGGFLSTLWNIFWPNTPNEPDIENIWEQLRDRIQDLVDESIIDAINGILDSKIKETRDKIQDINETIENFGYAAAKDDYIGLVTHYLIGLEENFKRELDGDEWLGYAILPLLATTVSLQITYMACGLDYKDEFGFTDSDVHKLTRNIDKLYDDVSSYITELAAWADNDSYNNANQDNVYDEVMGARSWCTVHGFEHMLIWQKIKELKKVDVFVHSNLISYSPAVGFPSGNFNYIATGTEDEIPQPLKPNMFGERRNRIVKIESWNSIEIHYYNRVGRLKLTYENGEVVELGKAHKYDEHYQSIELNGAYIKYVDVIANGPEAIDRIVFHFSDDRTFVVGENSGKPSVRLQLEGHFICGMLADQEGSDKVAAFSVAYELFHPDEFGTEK

T2: PirA (Vibrio parahaemolyticus)
T2 construct: also called JHE-like toxin PirA-like; vp19
T2 chain: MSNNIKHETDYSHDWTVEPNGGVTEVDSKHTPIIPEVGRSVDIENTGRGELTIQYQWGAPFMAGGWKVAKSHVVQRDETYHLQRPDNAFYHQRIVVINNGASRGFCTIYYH

B1: NBX0828 (VHH)
VHH: QVQLQESGGGAVQAGGSLRLSCAGPRSIFSGNAMAWYRQVPGKQRETVATVNTGGLTWYGDFVKGRFTISRDDAKNTLLLQMDSLKPEDTAVYYCNAVLVRARGMWGQGTQVTVSS
notes: on phage in the phage ELISA
B2: NBX0844 (VHH)
VHH: QVQLQESGGGLAQTGDSLRLSCAASGRMFSGFVMGWYRQNPGKQRELVATITNGGLTHYGDSVKGRFTISRDNAKNTVYLQMNSLKSEDSAVYYCNARRLFTNYWGQGTQVTVSP
notes: on phage in the phage ELISA
B3: NBX0648 (VHH)
VHH: QVQLQESGGGLVQAGGSLRLSCEASGIIFSSNVMGWYRQAPGKQRELVASRTSGGLTNYADSAKGRFTISRDNAKNTVYLQMNSLKPEDTAVYYCNARRLFTNYWGQGTQVTVSS
notes: on phage in the phage ELISA
B4: NBX0645 (VHH)
VHH: QVQLQESGGGLVQAGGSLRLSCAASGSIFSGNVMGWYRQVPGKQRDLVATITGGGITHYADSVKGRFTISRDNAKNTVYLQMNSLKPEDTAVYYCLYRRIMQQYWGQGTQVTVSS
notes: on phage in the phage ELISA
B5: NBX0646 (VHH)
VHH: QVQLQESGGGLVQAGGSLRLSCAASGSIFSGNVMGWYRQVPGNQRELVATITGGGVTRYADSVKARFTISRDNAKNTVYLQMNSLKPEDTAVYYCHYRRIMQQSWGQGTQVTVSS
notes: on phage in the phage ELISA
B6: NBX0650 (VHH)
VHH: QVQLQESGGGLVQAGGSLRLSCEASGSIFSGNVLGWYRQVPGKQRDLVATITGGGITRYADSVKGRFTISRDNAKNTVYLQMNALKPEDTAVYYCHYRRIMQQYWGQGTQVTVSS
notes: on phage in the phage ELISA
B7: NBX0647 (VHH)
VHH: QVQLQESGGGSVPPGGSLRLSCAASGSIFSGNVMAWYRQVPGKQRDLVASMTGGGVTRYADSVIARFTISRDNVKNTVYLQMNSLKPEDTAVYYCHYRRIMQQYWGQGTQVTVSS
notes: on phage in the phage ELISA
B8: NBX0649 (VHH)
VHH: QVQLQQSGGGLVQPGGSLTLSCAASGSIASGNVLGWYRQAPGKQRELVATITSGGLTHYKDSVKGRFTISRDNAKNMVFLQMNSLKPEDTAVYYCNYRRLATGYWGQGTQVTVSS
notes: on phage in the phage ELISA
B9: NBX0642 (VHH)
VHH: QVQLQQSGGGLVQAGGSLRLSCVASTVTFSRYAMGWFRQAPGKEREVVAGISGSGHRTYYGDFVKGRFTISRDNAKKTVYLQMNNLKPEDTAVYYCAGDLVAKFDSAYRVSYDSWGQGTQVTVSS
notes: on phage in the phage ELISA
B10: NBX0834 (VHH)
VHH: QVQLQESGGGSVQAGGSLRLSCAASESMFRDHNMGWYRQAPGKQRELVATISRGGLINYGDSVRGRFTISRDNAKNTIYLQMNSLKVEDTAVYYCNARRLLTTVWGQGTQVTVSP
notes: on phage in the phage ELISA
B11: NBX0841 (VHH)
VHH: QVQLQESGGGLVQAGGSLRLSCAASARTFIYKMGWFRQAPGKERDFVASIMWSVGNNYYYTDSAKGRFTISRDIAKNTMYLQMDSLEPEDTGEYYCAAATTSTQWRYWGQGTQVTVSS
notes: on phage in the phage ELISA
B12: NBX0836 (VHH)
VHH: QVQLQQSGGGLVQPGGSLRLSCSASGIRLGSYVMGYYRQAPGKQRELVATVTSGGTTNRADSVKGRFTISRDNAKNAVYLQMNSLKPEDTAVYYCNARILFTNYWGQGTQVTVSS
notes: on phage in the phage ELISA
B13: NBX0639 (VHH)
VHH: QVQLQESGGGLVQAGGSLRLSCAASGIVFSSIVMAWYRQAPGKQRELVASITNGGLVNSGDSVKGRFTISRDNAKNTVYLQMNSLKPEDTAVYYCNARRIMTSYWGQGTQVTVSS
notes: on phage in the phage ELISA
B14: NBX0641 (VHH)
VHH: QVQLQESGGGLVQAGGSLRLSCAASGSISNSYVMGWYRQAPGKQRELVATITSGGLTNYAQSLKGRFTISRDNAKNTVYLQMTSLEPEDTAVYYCNARVIFTTYWGQGTQVTVST
notes: on phage in the phage ELISA
B15: NBX0840 (VHH)
VHH: QVQLQQSGGGLVQAGGSLRLSCAASGSIRSSNVMGWYRQTPGKQRELVATMTAGGLTNYADSVKGRFTISRDNAKNTVYLQMNSLKPEDTAVYYCHYRRIFNVYWGQGTQVTVSS
notes: on phage in the phage ELISA
B16: NBX0401 (VHH)
VHH: QVQLQQSGGGLVRAGGSLRLSCETSGRTFSSYTMGWFRQAPGKEREFVGTIDWWSSSSSYADSVKGRFTISRDNAKNTVYLQMNSLKPEDTAVYYCAASGKYGLAYSRRDYAYWGQGTQVTVSS
notes: on phage in the phage ELISA
B17: NBX0607 (VHH)
VHH: QVQLQESGGGLVQAGGSLRLSCAASGGTFSRLTMGWFRQAPGEEREFVAAVSWVAETTDYADSVKGRFSISRDNSKNTVYLQMNSLKPVDTAVYYCAAGPRDMIRSRNIRSYDSWGQGTQVTVSS
notes: on phage in the phage ELISA
B18: NBX0632 (VHH)
VHH: QVQLQQSGGGLVQAGGSLRLSCAASGGTFSRLTMGWFRQAPGEEREFVAAVSWVAGTTDYADSVKGRFTISRDNSKNTVHLQMNSLKPVDTAVYYCAAGPRDMIRSRNIRSYDSWGQGTQVTVSS
notes: on phage in the phage ELISA
B19: NBX0629 (VHH)
VHH: QVQLQQSGGGLVQAGGSLRLSCAASGGTFSRLTIGWFRQAPGEERVFVAAVSWVAETTDYADSVKGRFSISRDNSKNTVYLQMNSLKPVDTAVYYCAAGPRDMIRSRNIRSYDSWGQGTQVTVSS
notes: on phage in the phage ELISA
B20: NBX0619 (VHH)
VHH: QVQLQQSGGGLVQAGGSLRLFCAASGGTFSRLTMGWFRQAPGEEREFVAAVSWVAETTDYADSVKGRFSISRDNSKNTVYLQMNNLKPVDTAVYYCAAGPRDMIRSRNIRSYDSWGQGTQVTVSS
notes: on phage in the phage ELISA
B21: NBX0849 (VHH)
VHH: QVQLQESGGGLVQAGGSLRLSCAASGRTFNRYAMGWFRQAPGKEREFVAAISWSGNTQYTDSVKGRFTISRDDAKNTVYLQMNSLKPEDTAVYYCALRIPASSSTTYYYADQYDYWGQGTQVTVSS
notes: on phage in the phage ELISA
B22: NBX0605 (VHH)
VHH: QVQLQESGGGLVQPGGALRLSCAASGSFFSIYAMAWYRQAPGKQRELVAGITSGSETNYADSVKGRFTISRDNAKNTVYLQMNSLKLEDTAVYYCNRWAPLTRLDYWGQGTQVTVSS
notes: on phage in the phage ELISA
B23: NBX0402 (VHH)
VHH: QVQLQQSGGSLVQAGGSLRLSCAASGLPFINYAMGWFRQAPGKDREIVAAIDWNGDSTYYAVSVKGRFTISRDNAKNTVTLQMNSLKPEDTAIYYCASHYQPYIRVSATRRFEADYWGQGTQVTVSS
notes: on phage in the phage ELISA
B24: NBX0403 (VHH)
VHH: QVQLQQSGGSLVQAGGSLRLSCAASGLPFINYAMGWFRQAPGKDREIVAAIDWNGDSTYYAVSVKGRFTISRDNAKNTVTLQMNSLKPEDTAIYYCAADYQPYIRVSATRRFEADYWGQGTQVTVSS
notes: on phage in the phage ELISA

Molecular target: T1, PirB
Assay: phage ELISA, antigen-coated wells

Binder	binding above PBS-coated wells [%]
B1	≥ 50
B2	≥ 50
B3	≥ 50
B4	≥ 50
B5	≥ 50
B6	≥ 50
B7	≥ 50
B8	≥ 50
B9	≥ 50
B10	≥ 50
B11	≥ 50
B12	≥ 50
B13	≥ 50
B14	≥ 50
B15	≥ 50

Molecular target: T2, PirA
Assay: phage ELISA, antigen-coated wells

Binder	binding above PBS-coated wells [%]
B16	≥ 50
B17	≥ 50
B18	≥ 50
B19	≥ 50
B20	≥ 50
B21	≥ 50
B22	≥ 50
B23	≥ 50
B24	≥ 50
